Results reported in patent US20190177366A1 (published 2019).
Ends that are not written are not given here.

molecular target: T1, proprotein convertase subtilisin/kexin type 9 (PCSK9) (human, UniProt Q8NBP7 31-152); assay: phage spot ELISA
T1 construct: domain: prodomain; Recombinant; tag not written as a part; also called rec.PCSK9; His-PCSK9
T1 sequence (Q8NBP7 31-152 limits assumed, chain 1 of 2): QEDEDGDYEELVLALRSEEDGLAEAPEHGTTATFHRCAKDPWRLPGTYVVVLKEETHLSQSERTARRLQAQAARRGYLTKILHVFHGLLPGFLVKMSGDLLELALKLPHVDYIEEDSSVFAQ
T1 sequence (Q8NBP7 153-692 limits assumed, chain 2 of 2): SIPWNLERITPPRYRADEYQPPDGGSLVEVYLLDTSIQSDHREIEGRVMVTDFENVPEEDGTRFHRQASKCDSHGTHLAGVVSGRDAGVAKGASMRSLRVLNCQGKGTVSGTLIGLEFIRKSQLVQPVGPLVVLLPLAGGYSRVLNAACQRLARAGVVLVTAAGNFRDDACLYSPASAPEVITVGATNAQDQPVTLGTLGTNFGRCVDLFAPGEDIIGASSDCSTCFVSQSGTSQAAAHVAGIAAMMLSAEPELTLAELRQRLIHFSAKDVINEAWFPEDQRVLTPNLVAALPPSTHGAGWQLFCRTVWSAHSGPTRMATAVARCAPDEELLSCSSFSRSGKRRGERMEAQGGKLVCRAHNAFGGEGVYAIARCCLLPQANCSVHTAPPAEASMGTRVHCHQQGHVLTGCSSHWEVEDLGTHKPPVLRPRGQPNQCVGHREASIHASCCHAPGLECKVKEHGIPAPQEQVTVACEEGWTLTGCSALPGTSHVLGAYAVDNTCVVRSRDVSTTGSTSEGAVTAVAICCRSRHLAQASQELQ

Binder	binding result
TAFTSWEEYLDWVGSGKLWNLGRV (phage clone) [SEQ ID NO 306]	binds
TAFTSWEEYLDWVGSGNCWSSLRGICENLG (phage clone) [SEQ ID NO 307]	binds
TAFTSWEEYLDWVGSGVLWNHSRI (phage clone) [SEQ ID NO 308]	binds
TAFTSWEEYLDWVGSGGPWNLNRV (phage clone) [SEQ ID NO 309]	binds
TAFTSWEEYLDWVGSGPLLWNLQKVH (phage clone) [SEQ ID NO 310]	binds
TAFTSWEEYLDWVGSGSCSWNVERIRGCSV (phage clone) [SEQ ID NO 311]	binds
TAFTSWEEYLDWVGSGKLWNLTRISS (phage clone) [SEQ ID NO 312]	binds
TAFTSWEEYLDWVGSGVVLWNHSRIL (phage clone) [SEQ ID NO 313]	binds
TAFTSWEEYLDWVGSGVPWNLARL (phage clone) [SEQ ID NO 314]	binds
TAFTSWEEYLDWVGSGVPWNLAKI (phage clone) [SEQ ID NO 315]	binds
TAFTSWEEYLDWVGSGGHPLWNLSRI (phage clone) [SEQ ID NO 316]	binds
TAFTSWEEYLDWVGSGNELWNINRLRSS (phage clone) [SEQ ID NO 317]	binds
TAFTSWEEYLDWVGSGMPWNLARIER (phage clone) [SEQ ID NO 318]	binds
TAFTSWEEYLDWVGSGALWNMRRVESVAFR (phage clone) [SEQ ID NO 319]	binds
TAFTSWEEYLDWVGSGGEYLWNLKRLES (phage clone) [SEQ ID NO 320]	binds
TAFTSWEEYLDWVGSGTRYADRGVMVYSLS (phage clone) [SEQ ID NO 321]	binds
TAFTSWEEYLDWVGSGMVYVDRGVRVFT (phage clone) [SEQ ID NO 322]	binds
TAFTSWEEYLDWVGSGGCVKYRGSVSCQESKT (phage clone) [SEQ ID NO 323]	binds
TAFTSWEEYLDWVGSGEHQFYSYRGVDVYR (phage clone) [SEQ ID NO 324]	binds

Binder	binding result
TAFTSWEEYLDWVGSGKNNYAYLINMPRAPGI (phage clone) [SEQ ID NO 325]	binds
TAFTSWEEYLDWVGSGRGGYELNIPR (phage clone) [SEQ ID NO 326]	binds
TAFTSWEEYLDWVGSGACLNHFVSGNMIRC (phage clone) [SEQ ID NO 327]	binds
TAFTSWEEYLDWVGSGCPFYDWRCSDFS (not fully specified (bridges); cysteine pairing not given here, phage clone) [SEQ ID NO 328]	binds
TAFTSWEEYLDWVGSGNVRCYRDVPSCS (not fully specified (bridges); cysteine pairing not given here, phage clone) [SEQ ID NO 329]	binds
TAFTSWEEYLDWVGSGEDVVCYGRVDYMPLCV (phage clone) [SEQ ID NO 330]	binds
TAFTSWEEYLDWVGSGNPTYWLTRIS (phage clone) [SEQ ID NO 331]	binds
TAFTSWEEYLDWVGSGPHSYWLDRVQ (phage clone) [SEQ ID NO 332]	binds
TAFTSWEEYLDWVGSGCVKVGLSWIGDCNS (phage clone) [SEQ ID NO 334]	binds
TAFTSWEEYLDWVGSGSYRGAWSVFGGSTD (phage clone) [SEQ ID NO 336]	binds
TAFTSWEEYLDWVGSGCMEAWQCSLA (phage clone) [SEQ ID NO 337]	binds
TAFTSWEEYLDWVGSGQCYPWCRL (phage clone) [SEQ ID NO 338]	binds
TAFTSWEEYLDWVGSGCWTYLRGGCSVT (not fully specified (bridges); cysteine pairing not given here, phage clone) [SEQ ID NO 339]	binds
TAFTSWEEYLDWVGSGPRTYLRGLVD (phage clone) [SEQ ID NO 340]	binds
TAFTSWEEYLDWVGSGQTTYLRVSSS (phage clone) [SEQ ID NO 341]	binds
TAFTSWEEYLDWVGSGRGEVYDKGGVIVHL (phage clone) [SEQ ID NO 343]	binds
TAFTSWEEYLDWVGSGGREMRSVIQM (phage clone) [SEQ ID NO 344]	binds
TAFTSWEEYLDWVGSGGDCGYHYMCSMT (not fully specified (bridges); cysteine pairing not given here, phage clone) [SEQ ID NO 345]	binds
TAFTSWEEYLDWVGSGQELPNHRRLS (phage clone) [SEQ ID NO 346]	binds

Binder	binding result
TAFTSWEEYLDWVGSGNMCYLRGKMDCNIV (phage clone) [SEQ ID NO 347]	binds
TAFTSWEEYLDWVGSGVCSDHYIGGKEVRC (phage clone) [SEQ ID NO 348]	binds
TAFTSWEEYLDWVGSGCCSYGYEKCCNG [SEQ ID NO 349]	binds
TAFTSWEEYLDWVGSGSETGLGTYYG (phage clone) [SEQ ID NO 350]	binds
TAFTSWEEYLDWVGSGSPCRVGYTPC (not fully specified (bridges); cysteine pairing not given here, phage clone) [SEQ ID NO 351]	binds
TAFTSWEEYLDWVGSGNCARLYSHQRDYSQVC (phage clone) [SEQ ID NO 352]	binds
TAFTSWEEYLDWVGSGCLDRSGGCYTREGYLS (phage clone) [SEQ ID NO 353]	binds
TAFTSWEEYLDWVGSGSSTWHFVGGVRV (phage clone) [SEQ ID NO 354]	binds
TAFTSWEEYLDWVGSGCYPLCRVG (phage clone) [SEQ ID NO 355]	binds
TAFTSWEEYLDWVGSGCYPLCRVL (phage clone) [SEQ ID NO 364]	binds
TAFTSWEEYLDWVGSGKCDSHYIRGVVACH (phage clone) [SEQ ID NO 356]	binds
TAFTSWEEYLDWVGSGKMTHMKAD (phage clone) [SEQ ID NO 357]	binds
TAFTSWEEYLDWVGSGGCGYRYMCDMINGL (phage clone) [SEQ ID NO 358]	binds
TAFTSWEEYLDWVGSGGDCYPHCRLV (not fully specified (bridges); cysteine pairing not given here, phage clone) [SEQ ID NO 359]	binds
TAFTSWEEYLDWVGSGDCLRYRVGSSCS (not fully specified (bridges); cysteine pairing not given here, phage clone) [SEQ ID NO 360]	binds
TAFTSWEEYLDWVGSGPTSGLTPS (phage clone) [SEQ ID NO 361]	binds
TAFTSWEEYLDWVGSGRCESKGWANTCVSE (phage clone) [SEQ ID NO 362]	binds
TAFTSWEEYLDWVGSGQVTSLPQA (phage clone) [SEQ ID NO 363]	binds
SGPRTYLRGLVD (phage clone without anchor) [SEQ ID NO 366]	binds
